Earlier results on one substance are cited in paper PMC3423493.

For data set [1], the target named is Sclerostin (Homo sapiens) (UniProt Q9BQB4).
The next data set has as its target BMP2 (Homo sapiens) (UniProt P12643).
UniProt P12643, sequence (P12643 283-396): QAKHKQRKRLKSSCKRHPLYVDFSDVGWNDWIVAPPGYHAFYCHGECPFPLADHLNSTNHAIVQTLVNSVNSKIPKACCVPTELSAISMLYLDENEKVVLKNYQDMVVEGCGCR

UniProt Q9BQB4, sequence (Q9BQB4 24-213): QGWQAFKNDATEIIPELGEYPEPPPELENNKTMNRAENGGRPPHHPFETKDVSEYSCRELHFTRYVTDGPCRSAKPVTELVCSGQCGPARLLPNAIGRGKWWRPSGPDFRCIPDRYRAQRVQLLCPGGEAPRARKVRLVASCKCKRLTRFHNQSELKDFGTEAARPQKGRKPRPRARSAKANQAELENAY

Usually Kd stands for the equilibrium constant for the complex coming apart. For Noggin (from UniProt Q13253), the Kd in data set [1] is 2.92 nM; with BMP2 (Homo sapiens) it was 0.02 nM.
